Reference: US20230183354A1 (IMMIOS HOLDING B V, published 2023)

Key:
[1] = biological target: human CD103 (integrin Alpha-E) / human integrin Beta-7 heterodimer on cells (human) (UniProt P38570); experiment: flow cytometry, tumor digest OC433, AF647-conjugated control Fab, direct read-out
[2] = biological target: human CD103 (integrin Alpha-E) / human integrin Beta-7 heterodimer on cells (human) (UniProt P38570); experiment: flow cytometry, tumor digest OC433, non-labeled control Fab with secondary anti-Fab reagent (APC); secondary antibody alone Q3 2,44
[3] = biological target: human CD103 (integrin Alpha-E) / human integrin Beta-7 heterodimer on cells (human) (UniProt P38570); experiment: flow cytometry, tumor digest OC433, non-labeled control Fab with secondary anti-Fab reagent (APC); secondary antibody alone Q2 4,65
[4] = biological target: human CD103 (integrin Alpha-E) / human integrin Beta-7 heterodimer on cells (human) (UniProt P38570); experiment: flow cytometry competition on CD103+CD8+ T cells; pre-incubation with unlabeled 07A; table n=2
[5] = biological target: human CD103 (integrin Alpha-E) / human integrin Beta-7 heterodimer on cells (human) (UniProt P38570); experiment: flow cytometry competition on CD103+CD8+ T cells; pre-incubation with unlabeled IgG (f2); table n=2
[6] = biological target: human CD103 (integrin Alpha-E) / human integrin Beta-7 heterodimer on cells (human) (UniProt P38570); experiment: flow cytometry competition on CD103+CD8+ T cells; pre-incubation with unlabeled 05A; table n=2
[7] = biological target: human CD103 (integrin Alpha-E) / human integrin Beta-7 heterodimer on cells (human) (UniProt P38570); experiment: flow cytometry competition on CD103+CD8+ T cells; pre-incubation with unlabeled BERACT; table n=1
[8] = biological target: human CD103 (integrin Alpha-E) / human integrin Beta-7 heterodimer on cells (human) (UniProt P38570); experiment: flow cytometry competition on CD103+CD8+ T cells; pre-incubation with unlabeled 02A; table n=2
[9] = biological target: human CD103 (integrin Alpha-E) / human integrin Beta-7 heterodimer on cells (human) (UniProt P38570); experiment: flow cytometry competition on CD103+CD8+ T cells; pre-incubation with unlabeled MCA708 (f4); table n=2
[10] = biological target: human CD103 (integrin Alpha-E) / human integrin Beta-7 heterodimer on cells (human) (UniProt P38570); experiment: flow cytometry competition on CD103+CD8+ T cells; pre-incubation with unlabeled 01A; table n=2
[11] = biological target: human CD103 (integrin Alpha-E) / human integrin Beta-7 heterodimer on cells (human) (UniProt P38570); experiment: flow cytometry competition on CD103+CD8+ T cells; pre-incubation with unlabeled 05A; table n=1
[12] = biological target: human CD103 (integrin Alpha-E) / human integrin Beta-7 heterodimer on cells (human) (UniProt P38570); experiment: flow cytometry competition on CD103+CD8+ T cells; pre-incubation with unlabeled 06A; table n=2
[13] = biological target: human CD103 (integrin Alpha-E) / human integrin Beta-7 heterodimer on cells (human) (UniProt P38570); experiment: flow cytometry competition on CD103+CD8+ T cells; pre-incubation with unlabeled 06A; table n=1
[14] = biological target: human CD103 (integrin Alpha-E) / human integrin Beta-7 heterodimer on cells (human) (UniProt P38570); experiment: flow cytometry competition on CD103+CD8+ T cells; pre-incubation with unlabeled 07A; table n=1
[15] = biological target: human CD103 (integrin Alpha-E) / human integrin Beta-7 heterodimer on cells (human) (UniProt P38570); experiment: flow cytometry, tumor digest OC433, CD3 positive cells; Control panel Q3 2,12
[16] = biological target: human CD103 (integrin Alpha-E) / human integrin Beta-7 heterodimer on cells (human) (UniProt P38570); experiment: flow cytometry competition on CD103+CD8+ T cells; pre-incubation with unlabeled BERACT; table n=2
[17] = biological target: human CD103 (integrin Alpha-E) / human integrin Beta-7 heterodimer on cells (human) (UniProt P38570); experiment: flow cytometry competition on CD103+CD8+ T cells; pre-incubation with unlabeled 02A; table n=1
[18] = biological target: human CD103 (integrin Alpha-E) / human integrin Beta-7 heterodimer on cells (human) (UniProt P38570); experiment: flow cytometry competition on CD103+CD8+ T cells; pre-incubation with unlabeled 03A; table n=2
[19] = biological target: human CD103 (integrin Alpha-E) / human integrin Beta-7 heterodimer on cells (human) (UniProt P38570); experiment: flow cytometry competition on CD103+CD8+ T cells; pre-incubation with unlabeled 01A; table n=1
[20] = biological target: human CD103 (integrin Alpha-E) / human integrin Beta-7 heterodimer on cells (human) (UniProt P38570); experiment: flow cytometry competition on CD103+CD8+ T cells; pre-incubation with unlabeled IgG (f2); table n=1
[21] = biological target: human CD103 (integrin Alpha-E) / human integrin Beta-7 heterodimer on cells (human) (UniProt P38570); experiment: flow cytometry, tumor digest OC433, CD3 positive cells; Control panel Q2 0,53
[22] = biological target: human CD103 (integrin Alpha-E) / human integrin Beta-7 heterodimer on cells (human) (UniProt P38570); experiment: flow cytometry competition on CD103+CD8+ T cells; pre-incubation with unlabeled MCA708 (f4); table n=1
[23] = biological target: human CD103 (integrin Alpha-E) / human integrin Beta-7 heterodimer on cells (human) (UniProt P38570); experiment: flow cytometry competition on CD103+CD8+ T cells; pre-incubation with unlabeled 03A; table n=1
[24] = biological target: T1, human CD103 (integrin Alpha-E) / human integrin Beta-7 heterodimer on cells (human, UniProt P38570 19-1179; P26010 20-798); experiment: cell ELISA on CHO.K1-humanCD103/beta7 cells, abs 450-610
T1 construct: The same id is used for native CD103 on human CD103+CD8+ T cells (tumor digests, TGF-beta induced T cells); the assay field tells which cells; also called hCD103/hBeta7; CHO.K1-hCD103/hBeta7

murine CD103 = biological target: T2, murine CD103 (mouse, UniProt Q60677 20-1167); experiment: flow cytometry on mouse spleen and thymus cells
T2 construct: whole, on cells; also called murine CD103+ T cells; mouse CD103
T2 sequence (looked up): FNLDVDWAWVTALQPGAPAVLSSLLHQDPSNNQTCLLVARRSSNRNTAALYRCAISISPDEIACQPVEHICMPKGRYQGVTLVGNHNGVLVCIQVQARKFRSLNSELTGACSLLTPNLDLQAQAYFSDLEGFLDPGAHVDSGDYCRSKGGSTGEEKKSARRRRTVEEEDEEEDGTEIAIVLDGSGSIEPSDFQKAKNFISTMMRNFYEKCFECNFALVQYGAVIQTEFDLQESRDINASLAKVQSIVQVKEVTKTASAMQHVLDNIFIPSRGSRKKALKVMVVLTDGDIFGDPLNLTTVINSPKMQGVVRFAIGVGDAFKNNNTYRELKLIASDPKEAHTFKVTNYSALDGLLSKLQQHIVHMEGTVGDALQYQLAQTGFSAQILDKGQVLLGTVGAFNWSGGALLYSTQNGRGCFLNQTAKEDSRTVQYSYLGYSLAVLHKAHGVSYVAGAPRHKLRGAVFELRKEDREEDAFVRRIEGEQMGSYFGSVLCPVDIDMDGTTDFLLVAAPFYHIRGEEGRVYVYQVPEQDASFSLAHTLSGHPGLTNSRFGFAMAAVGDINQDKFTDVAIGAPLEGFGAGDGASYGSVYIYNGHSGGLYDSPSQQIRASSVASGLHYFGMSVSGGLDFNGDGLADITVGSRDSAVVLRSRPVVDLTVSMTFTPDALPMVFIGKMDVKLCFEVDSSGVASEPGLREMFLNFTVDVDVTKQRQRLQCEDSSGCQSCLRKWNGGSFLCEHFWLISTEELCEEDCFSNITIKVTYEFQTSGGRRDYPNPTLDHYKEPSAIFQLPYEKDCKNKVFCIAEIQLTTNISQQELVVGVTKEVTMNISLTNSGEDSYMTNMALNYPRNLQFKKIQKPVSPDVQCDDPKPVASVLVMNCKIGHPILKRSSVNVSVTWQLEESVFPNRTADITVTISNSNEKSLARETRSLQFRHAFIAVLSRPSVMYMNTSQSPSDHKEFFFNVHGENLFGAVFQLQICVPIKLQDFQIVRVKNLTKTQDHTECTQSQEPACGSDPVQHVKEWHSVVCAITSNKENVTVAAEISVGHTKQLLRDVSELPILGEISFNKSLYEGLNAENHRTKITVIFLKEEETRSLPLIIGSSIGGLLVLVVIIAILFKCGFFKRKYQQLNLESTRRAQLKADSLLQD
Description: Additional aliquots were stained with relevant isotype controls or as fluorescence minus one controls (“FMO” controls are cells stained with all the fluorophores minus one fluorophore; the relevant isotype controls contain either a directly labeled unspecific isotype antibody or an unspecific isotype antibody combined with secondary detection reagent). Percentage binding of fluorescently labeled mAbs was determined using flow cytometry. Maximum binding was set at 100%. […] Data analysis was performed with FlowJo v10 (Tree Star) and surface receptor levels were expressed as mean fluorescent intensity (MFI).

[25] = biological target: T3, human integrin Alpha-4 / human integrin Beta-7 heterodimer on CHO-K1 cells (human, UniProt P13612 34-1032; P26010 20-798); experiment: cell ELISA on CHO.K1-humanAlpha4/beta7 cells, abs 450-610
T3 construct: Used as the control for reactivity with hBeta7; also called hAlpha4/hBeta7; CHO.K1-hAlpha4/hBeta7

A % of cells in Q2 (CD8+ CD103+) [1] of 2.58% and a % of cells in Q3 (CD8- CD103+) [1] of 1.29% were found for Alexa647.mFab control in this work.

A % of cells in Q3 (CD8- CD103+) [2] of 3.71% and a % of cells in Q2 (CD8+ CD103+) [3] of 4.64% were found for hFab isotype in this work.

A % binding of the fluorescently labeled mAb (IgG pre-incubation = 100) [4] of 29.2%, a % binding of the fluorescently labeled mAb (IgG pre-incubation = 100) [5] of 100% and a % binding of the fluorescently labeled mAb (IgG pre-incubation = 100) [6] of 60.6% were found for CD103 (Ber-ACT8) antibody (BD) in this work. It also gave a % binding of the fluorescently labeled mAb (IgG pre-incubation = 100) [7] of 1.9%, a % binding of the fluorescently labeled mAb (IgG pre-incubation = 100) [8] of 2.9% and a % binding of the fluorescently labeled mAb (IgG pre-incubation = 100) [9] of 109%. For the same molecule, the % binding of the fluorescently labeled mAb (IgG pre-incubation = 100) [10] was 2.3%, the % binding of the fluorescently labeled mAb (IgG pre-incubation = 100) [11] was 50.9% and the % binding of the fluorescently labeled mAb (IgG pre-incubation = 100) [12] was 103%. The % binding of the fluorescently labeled mAb (IgG pre-incubation = 100) [13] was 96.6%, the % binding of the fluorescently labeled mAb (IgG pre-incubation = 100) [14] was 27.2% and the % of CD3 positive cells in Q3 (CD8- CD103+) [15] was 7.75%. For the same molecule, the % binding of the fluorescently labeled mAb (IgG pre-incubation = 100) [16] was 3.5%, the % binding of the fluorescently labeled mAb (IgG pre-incubation = 100) [17] was 1.4% and the % binding of the fluorescently labeled mAb (IgG pre-incubation = 100) [18] was 101%. It also gave a % binding of the fluorescently labeled mAb (IgG pre-incubation = 100) [19] of 0.9%, a % binding of the fluorescently labeled mAb (IgG pre-incubation = 100) [20] of 100% and a % of CD3 positive cells in Q2 (CD8+ CD103+) [21] of 13.4%. For the same molecule, the % binding of the fluorescently labeled mAb (IgG pre-incubation = 100) [22] was 115% and the % binding of the fluorescently labeled mAb (IgG pre-incubation = 100) [23] was 97%.

B1: hCD103.02A (antibody, V domains shown)
VH: EVQLQESGPSLVKPSQTLSLTCSVTGDSITSGYWNWIRKFPGNKLEYMGYITYSGSTYYNPSLKSRISITRDTSKNQYYLQFNSVTTEDTATYYCARGYYGSDAMDYWGQGTSVTVSS
VL: DIVMTQSHKFMSTSVGDRVSITCKASQDVSTAVAWYQQKPGQSPKLLIYSASYRYTGVPDRFTGSGSGTDFTFTISSVQAEDLAVYYCQQHYSPPWTFGGGTKLEIK
notes: also called clone 02A
B1 was tested, and the “EC50 (read off the curve)” value [24] was roughly 10 ng/mL, the binding result (murine CD103) was “no binding” and the binding result [25] was “no binding”.
